T1: human CYP1B1 (Homo sapiens, UniProt Q16678)
T1 construct: made in house; host or cells: Saccharomyces cerevisiae JL20 / W303B and derived strains; microsomes
T1 sequence (Q16678 with tags, fused parts or gaps): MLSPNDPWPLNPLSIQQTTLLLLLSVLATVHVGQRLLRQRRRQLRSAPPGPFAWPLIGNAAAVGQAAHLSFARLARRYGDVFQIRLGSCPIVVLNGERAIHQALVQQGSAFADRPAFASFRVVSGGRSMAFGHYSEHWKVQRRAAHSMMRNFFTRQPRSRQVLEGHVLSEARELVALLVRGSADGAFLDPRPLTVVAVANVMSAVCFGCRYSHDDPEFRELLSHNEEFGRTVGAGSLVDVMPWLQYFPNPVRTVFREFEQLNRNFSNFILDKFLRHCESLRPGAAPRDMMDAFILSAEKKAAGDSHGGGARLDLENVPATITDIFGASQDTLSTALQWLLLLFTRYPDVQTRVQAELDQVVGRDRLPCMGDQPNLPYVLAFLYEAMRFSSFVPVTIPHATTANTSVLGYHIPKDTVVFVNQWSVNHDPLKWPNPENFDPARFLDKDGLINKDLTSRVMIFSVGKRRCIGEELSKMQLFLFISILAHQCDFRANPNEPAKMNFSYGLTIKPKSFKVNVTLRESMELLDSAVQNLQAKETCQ

B1: 675 bp GAL1p: truncated 675 bp yeast GAL1 promoter (SEQ ID No. 2) (nucleic acid)
DNA: CTTGAATTTTCAAAAATTCTTACTTTTTTTTTGGATGGACGCAAAGAAGTTTAATAATCATATTACATGGCATTACCACCATATACATATCCATATACATATCCATATCTAATCTTACTTATATGTTGTGGAAATGTAAAGAGCCCCATTATCTTAGCCTAAAAAAACCTTCTCTTTGGAACTTTCAGTAATACGCTTAACTGCTCATTGCTATATTGAAGTACGGATTAGAAGCCGCCGAGCGGGTGACAGCCCTCCGAAGGAAGACTCTCCTCCGTGCGTCCTCGTCTTCACCGGTCGCGTTCCTGAAACGCAGATGTGCCTCGCGCCGCACTGCTCCGAACAATAAAGATTCTACAATACTAGCTTTTATGGTTATGAAGAGGAAAAATTGGCAGTAACCTGGCCCCACAAACCTTCAAATGAACGAATCAAATTAACAACCATAGGATGATAATGCGATTAGTTTTTTAGCCTTATTTCTGGGGTAATTAATCAGCGAAGCGATGATTTTTGATCTATTAACAGATATATAAATGCAAAAACTGCATAACCACTTTAACTAATACTTTCAACATTTTCGGTTTGTATTACTTCTTATTCAAATGTAATAAAAGTATCAACAAAAAATTGTTAATATACCTCTATACTTTAACGTCAAGGAGAAAAAACCCC
modifications: /note = Positive strand of the 675 bp GAL1 promoter
B2: ΔN24hRD-cmyc: human P450 reductase lacking N-terminal 24 amino acids, with C-terminal c-myc epitope tag (SEQ ID NO: 27) (protein)
chain: MTDMILFSLIVGLLTYWFLFRKKKEEVPEFTKIQTLTSSVRESSFVEKMKKTGRNIIVFYGSQTGTAEEFANRLSKDAHRYGMRGMSADPEEYDLADLSSLPEIDNALVVFCMATYGEGDPTDNAQDFYDWLQETDVDLSGVKFAVFGLGNKTYEHFNAMGKYVDKRLEQLGAQRIFELGLGDDDGNLEEDFITWREQFWPAVCEHFGVEATGEESSIRQYELVVHTDIDAAKVYMGEMGRLKSYENQKPPFDAKNPFLAAVTTNRKLNQGTERHLMHLELDISDSKIRYESGDHVAVYPANDSALVNQLGKILGADLDVVMSLNNLDEESNKKHPFPCPTSYRTALTYYLDITNPPRTNVLYELAQYASEPSEQELLRKMASSSGEGKELYLSWVVEARRHILAILQDCPSLRPPIDHLCELLPRLQARYYSIASSSKVHPNSVHICAVVVEYETKAGRINKGVATNWLRAKEPVGENGGRALVPMFVRKSQLRLPFKATTPVIMVGPGTGWHPFIGFIQERAWLRQQGKEVGETLLYYGCRRSDEDYLYREELAQFHRDGALTQLNVAFSREQSHKVYVQHLLKQDREHLWKLIEGGAHIYVCGDARNMARDVQNTFYDIVAELGAMEHAQAVDYIKKLMTKGRYSLDVWSSSEQKLISEEDLNGSRL
modifications: C-terminal c-myc tag; /note = delta-N24hRD-cmyc tag human P450 reductase
B3: ΔN24hRD: human P450 reductase variant lacking the charged N-terminal 24 amino acids (SEQ ID NO: 26) (protein)
chain: MTDMILFSLIVGLLTYWFLFRKKKEEVPEFTKIQTLTSSVRESSFVEKMKKTGRNIIVFYGSQTGTAEEFANRLSKDAHRYGMRGMSADPEEYDLADLSSLPEIDNALVVFCMATYGEGDPTDNAQDFYDWLQETDVDLSGVKFAVFGLGNKTYEHFNAMGKYVDKRLEQLGAQRIFELGLGDDDGNLEEDFITWREQFWPAVCEHFGVEATGEESSIRQYELVVHTDIDAAKVYMGEMGRLKSYENQKPPFDAKNPFLAAVTTNRKLNQGTERHLMHLELDISDSKIRYESGDHVAVYPANDSALVNQLGKILGADLDVVMSLNNLDEESNKKHPFPCPTSYRTALTYYLDITNPPRTNVLYELAQYASEPSEQELLRKMASSSGEGKELYLSWVVEARRHILAILQDCPSLRPPIDHLCELLPRLQARYYSIASSSKVHPNSVHICAVVVEYETKAGRINKGVATNWLRAKEPVGENGGRALVPMFVRKSQLRLPFKATTPVIMVGPGTGWHPFIGFIQERAWLRQQGKEVGETLLYYGCRRSDEDYLYREELAQFHRDGALTQLNVAFSREQSHKVYVQHLLKQDREHLWKLIEGGAHIYVCGDARNMARDVQNTFYDIVAELGAMEHAQAVDYIKKLMTKGRYSLDVWS
modifications: /note = delta-N24hRD human P450 reductase

What was measured:
human CYP1B1 = molecular target: T1, human CYP1B1; assay: Determination of P450 amounts via CO-difference spectra (CYP1B1 in yeast microsomes); details: strains JL20 and W303B with only endogenous yeast P450 reductase, average of 3 observations
Method: Determination of P450 amounts via CO-difference spectra: Difference spectra of microsomal preparations were measured in a spectrophotometer (Lambda 16, Perkin Elmer) using plastic disposable cuvettes. 850 μl of a solution containing 100 mM potassium phosphate and 20% glycerol (pH7.5) was added to the cuvette, and left for one minute. Then a ‘few grains’ of sodium hydrosulfite was added, mixed gently to prevent any bubble forming in the cuvette and left for another minute. 150 μl of mirosomes were added into the cuvette and the whole suspension was mixed gently. Two cuvettes (one containing sodium hydrosulphite without microsome and the other with microsome) were prepared and a baseline of light absorption of the buffer and microsome mixture was recorded in the dual-beam spectrophotometer from 400 nm to 500 nm. Carbon monoxide was bubbled slowly into one sample cuvette for about one minute, 1 bubble/second. Light absorption was recorded again from 400 nm to 500 nm. The concentration of cytochrome P450 in the cuvette was calculated from the absorption change at 450 nm relative to the absorbance change at 490 nm, using the formula below: […]

[1] = tested on: human NADPH P450 reductase; assay: MTT-based cytochrome P450 reductase assay, hRD variants in yeast microsomes and cytosolic fractions; assay type: biochemical; details: for microsome bound reductase activity: microsomes; for microsome bound reductase activity / cytosolic reductase activity: LEU2 locus of W303B; for cytosolic reductase activity: soluble cytosolic fraction
Method: Microsomes from the different yeast strains were prepared as described in Example 1.15. About 100 μg of microsomes, as measured by the Bio-Rad Bradford assay, were used and the increase in MTT reductase activity was followed over a time period of 400 seconds.
The different yeast strains were grown up in YPGE medium as described in Example 1.15. The cells were harvested and centrifuged to a pellet. 10% of cell pellets were re-suspended in 1 ml of buffer B (10 mM Tris-Cl pH7.5, 2 M Sorbitol, 0.1 mM EDTA pH8.0, 1 mM Pefabloc, 0.1 mM DTT) and re-suspended cells were treated with lyticase (3-5 units/O.D. of cells; 2200 units/mg; Sigma) for about an hour. The yeast cell wall was enzymatically removed using lyticase, the pellets were centrifuged and washed twice with ice cold PBS, finally re-suspended in 1 ml PBS. About 0.5 ml of glass beads were added to the suspension and the cells were vortexed three times with a 5 min interval on ice after each vortexing. The cells lysates were directly used for the MTT-based reductase assay. Equal amount of cells lysates (100 μg, as measured by the Bio-Rad Bradford assay) were used and the increase in MTT reductase activity was followed, as above, over a time period of 400 seconds.
The enzyme NADPH-cytochrome P450 reductase mediates the transfer of electrons from NADPH to cytochrome P450, other microsomal proteins and cytochrome c. It also catalyzes the reduction of many drugs and other compounds such as potassium ferricyanide, 2,6-dichloroindopheonl, 1,1-diphenyl-2-picrylhydrazyl (DPPH), and mitomycin c. Tetrazolium salts are used extensively in cell proliferation and cytotoxicity assays, enzyme assays, histochemical procedures and bacteriological screening. […] The compound 3-(4,5-dimethylthiazol-2-yl)-2,5-diphenyltetrazolium bromide (MTT) is a monotetrazolium salt. The reduction of MTT is one of the most frequently used methods for measuring cell proliferation and cytotoxiciy. Reduction of MTT by P450 reductase has been assessed as a method for monitoring yeast produced recombinant P450 reductase activity and the protocol was developed on the procedure published by Yim S-K, et al (Yim S-K., Y. C.-H. Ahn T., Hung H—C and Pan J-G. A continuous Spectrophotometric assay for NADPH-cytochrome P450 reductase activity using 3-(4,5 Dimethylthiazol-2-yl)-2,5-diphenyltetrazolium Bromide. Journal of Biology and Molecular Biology 38: 366-369, 2005). The principal advantage of this substance is that the reduction of MTT can be assayed directly in the reaction medium by a continuous spectrophotometirc method. The electrons released from NADPH by P450 reductase are transferred to MTT, and then the amounts of reduced MTT is assessed spectrophotometrically by measuring the increase in A610 values that is due to the formation of blue formazan. The extinction coefficient of MTT is 11.3 mM^−1 cm^−1. This method offers the advantages of short analysis time with the use of a relatively cheap commercial substrate. The classical assay uses recombinant cytochrome c as a substrate.
Disposable cuvettes were used for this experiment. 850 μl of potassium phosphate buffer was added to a cuvette. […] The cuvette was quickly placed into the spectrophotometer together with the blank cuvette and its contents (that contained all components as in the other test cuvette but not the microsomes or cell supernatant) and the increase in the values at 610 nm was measured for a time period of 400 seconds. […]

Molecule	Expression of CYP1B1 (amounts of P450 produced) from GAL promoter variants (human CYP1B1)	Expression of CYP1B1 (amounts of P450 produced) from GAL promoter variants (human CYP1B1; listed as 675 bp GAL1 promoter)	P450 reductase activity (MTT reduction) ([1]; microsomal and soluble (cytosolic) fractions, hRD variants in W303B)	microsome bound reductase activity [1]	cytosolic reductase activity [1]
B1	the best	the best expression			
B2			much more potent in reductase activity than ΔN24hRD	superior in its reductase activity than the wild type full-length protein	also higher
B3				minimal	most of the activity of ΔN24hRD exists in the soluble cytosolic part of the cell
